Assay [1] has as its target Cse4-NCP: nucleosome core particle of K. lactis 6XHis-H2A, K. lactis 6XHis-H2B, S. cerevisiae Cse4 and K. lactis 6XHis-H4, wrapped in 601 DNA (Kluyveromyces lactis | S. cerevisiae) (UniProt P36012). Kind of assay: optical trap force-ramp rupture assay; same beads and free proteins (10 nM each) as the attachment assay; bead on a growing microtubule tip, 1 pN preload, then a ramp of 0.25 pN/s until detachment; median rupture force of the whole chain; not single-molecule conditions; room temperature.

Assay [2] shares this target. Kind of assay: optical trap bead-microtubule attachment assay (self-assembly and microtubule binding); one His6-tagged subcomplex on anti-His5 polystyrene beads (10 nM on 3.5 pM beads), the other subcomplexes free at 10 nM each; the bead was brought to a single growing microtubule with the laser trap, and a bead whose contact did not persist with the laser off counted as a nonbinder; no external force; BRB80 growth buffer with 1 mM GTP, room temperature; in negative controls one subcomplex was omitted.

Assay [3] has as its target T1, Ndc80c (Ndc80, Nuf2, Spc24-Flag, Spc25) (S. cerevisiae, UniProt P40460 1-691; P33895 1-451; Q04477 1-213; P40014 1-221).
T1 construct: Ndc80, S. cerevisiae; Nuf2, S. cerevisiae; Spc24, S. cerevisiae; Spc25, S. cerevisiae; also called Ndc80 complex; pJT048 with Ndc80/Nuf2; copies: + + +
Kind of assay: optical trap bead-microtubule attachment assay (self-assembly and microtubule binding); one His6-tagged subcomplex on anti-His5 polystyrene beads (10 nM on 3.5 pM beads), the other subcomplexes free at 10 nM each; the bead was brought to a single growing microtubule with the laser trap, and a bead whose contact did not persist with the laser off counted as a nonbinder; no external force; BRB80 growth buffer with 1 …. The settings on record: both partners purified.

Assay [4] addresses T1, Ndc80c (Ndc80, Nuf2, Spc24-Flag, Spc25). Kind of assay: optical trap force-ramp rupture assay; same beads and free proteins (10 nM each) as the attachment assay; bead on a growing microtubule tip, 1 pN preload, then a ramp of 0.25 pN/s until detachment; median rupture force of the whole chain; not single-molecule conditions; room temperature. To be noted: both partners purified.

T1 sequence (P40460 whole entry, chain 1 of 4): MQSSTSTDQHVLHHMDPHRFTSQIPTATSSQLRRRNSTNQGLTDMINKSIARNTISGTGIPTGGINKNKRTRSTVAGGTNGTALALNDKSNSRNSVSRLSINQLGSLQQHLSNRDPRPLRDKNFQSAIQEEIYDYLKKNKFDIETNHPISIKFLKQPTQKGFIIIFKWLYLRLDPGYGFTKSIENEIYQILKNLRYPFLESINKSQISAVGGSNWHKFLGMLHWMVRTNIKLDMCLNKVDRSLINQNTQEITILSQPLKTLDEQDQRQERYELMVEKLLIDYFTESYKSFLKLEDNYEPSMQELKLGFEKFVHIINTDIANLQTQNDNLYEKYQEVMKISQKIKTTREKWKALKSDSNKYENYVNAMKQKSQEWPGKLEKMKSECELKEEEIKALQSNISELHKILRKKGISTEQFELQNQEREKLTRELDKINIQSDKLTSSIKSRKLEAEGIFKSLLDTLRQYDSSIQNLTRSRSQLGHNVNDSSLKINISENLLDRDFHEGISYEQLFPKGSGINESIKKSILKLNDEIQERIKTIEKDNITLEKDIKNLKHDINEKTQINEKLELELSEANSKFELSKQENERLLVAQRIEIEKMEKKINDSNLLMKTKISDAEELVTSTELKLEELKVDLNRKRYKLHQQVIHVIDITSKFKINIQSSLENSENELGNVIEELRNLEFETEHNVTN
T1 sequence (P33895 whole entry, chain 2 of 4): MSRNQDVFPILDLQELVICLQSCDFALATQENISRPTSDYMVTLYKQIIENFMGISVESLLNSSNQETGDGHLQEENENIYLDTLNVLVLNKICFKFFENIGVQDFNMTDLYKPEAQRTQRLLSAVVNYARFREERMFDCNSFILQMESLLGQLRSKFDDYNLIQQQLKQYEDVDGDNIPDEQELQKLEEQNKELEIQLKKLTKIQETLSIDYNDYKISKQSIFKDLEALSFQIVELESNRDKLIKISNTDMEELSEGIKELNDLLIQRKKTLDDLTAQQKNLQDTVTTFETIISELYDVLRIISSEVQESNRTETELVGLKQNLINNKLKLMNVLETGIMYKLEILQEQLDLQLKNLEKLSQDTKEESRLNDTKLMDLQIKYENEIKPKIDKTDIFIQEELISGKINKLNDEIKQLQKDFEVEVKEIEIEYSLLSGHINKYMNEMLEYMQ
T1 sequence (Q04477 whole entry, chain 3 of 4): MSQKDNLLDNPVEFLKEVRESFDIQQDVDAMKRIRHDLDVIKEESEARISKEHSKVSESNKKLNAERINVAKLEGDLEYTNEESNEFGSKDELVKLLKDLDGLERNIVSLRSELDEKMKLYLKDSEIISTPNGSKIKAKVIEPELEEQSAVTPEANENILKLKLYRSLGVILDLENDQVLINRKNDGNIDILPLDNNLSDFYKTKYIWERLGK
T1 sequence (P40014 whole entry, chain 4 of 4): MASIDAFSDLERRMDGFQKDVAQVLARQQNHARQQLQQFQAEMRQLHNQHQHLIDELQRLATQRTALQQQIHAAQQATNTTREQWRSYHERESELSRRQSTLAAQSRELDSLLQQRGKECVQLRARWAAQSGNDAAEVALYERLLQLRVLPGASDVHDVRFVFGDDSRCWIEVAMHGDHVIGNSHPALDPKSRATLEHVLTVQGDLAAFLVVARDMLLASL

In assay [1], “Mif2-linker-(27-392)MBP (from UniProt P35201 1-549) (natural protein)” came in with a median rupture force of Cse4-NCP-based chains with both Mif2 and OA free (with 2D-MIND and Ndc80c) of 4 pN; a median rupture force of the whole chain Cse4-NCP/Mif2/2D-MIND/Ndc80c of 3.3 pN. In assay [2], this molecule registered a percent of beads that bound microtubules (Cse4-NCP beads with free Mif2, 2D-MIND and Ndc80c) of 24%.

B1: MIND complex, wild type (Nsl1, FLAG-Dsn1, Mtw1, Nnf1) (complex, S. cerevisiae)
chain 1: MSQGQSKKLDVTVEQLRSIYHQFHDILEEKTDLHLPKKEYDDDAVRREVQIQLQEFLLSAMTMASKSLEVVNADTVGKTVKQLIMESQEKYMEPFDLDLNEQVRKMYQEWEDETVKVAQLRQTGPAKINEVYNNSKDEYLAQLDGRIGVLQARMMQQQSADHDDSTDDADDHINWEHIKQDYVASLNELYQTQQDLPKVRYNVEKVKRLMDFLEED
chain 2: MSLEPTQTVSGTPPMLHQRTHKQVYPLRMETIPILESDSKATLQSNEPTQKDEEETEYFENKQSVSNLSPDLKFKRHKNKHIQGFPTLGERLDNLQDIKKAKRVENFNSSAPIADDNHSGDATANATANATANATANVNASAMPAPYMPYYYYYHPMNAPTPAMIPYPGSPMHSIMPNSSLQPFYSQPTAAGGPDMTTPQNISSSQQLLPAPQLFPYGSFHQQQLQQPHYIQRTRERKKSIGSQRGRRLSMLASQANGGSTIISPHKDIPEEDFYTVVGNASFGKNLQIRQLFNWCLMRSLHKLELKAKNQEEEGELEHLTKKSKLESTKAETDYVDPKRLAMVIIKEFVDDLKKDHIAIDWEDEEKYEDEDEEKILDNTENYDDTELRQLFQENDDDDDDDDEVDYSEIQRSRRKFSERRKALPKEPKKLLPNSKNVENTKNLSILTSKVNAIKNEVKEWAVTLDTSRPDLEWQELTSFSSQPLEPLSDTEEPDLAIADVETKLETKVDELRYQSHILNSHSLALNEITNSKVNKLNIETMRKISSETDDDHSQVINPQQLLKGLSLSFSKKLDL
chain 3: MSAPTMRSTSILTEHLGYPPISLVDDIINAVNEIMYKCTAAMEKYLLSKSKIGEEDYGEEIKSGVAKLESLLENSVDKNFDKLELYVLRNVLRIPEEYLDANVFRLENQKDLVIVDENELKKSEEKLREKVNDVELAFKKNEMLLKRVTKVKRLLFTIRGFKQKLNELLKCKDDVQLQKILESLKPIDDTMTLLTDSLRKLYVDSESTSSTEEVEALLQRLKTNGKQNNKDFRTRYIDIRTNNVLRKLGLLGDKEDEKQSAKPDARTQAGDIVSIDIEEPQLDLLDDVL
chain 4: MVNSHGIRYIRLKQVFNRALDQSISKLQSWDKVSSCFPQYVNSKQGAINVANCQRQLTEFWTELCQREFKEIMEERNVEQKLNELDELILEAKERYTDRDQDEVNKGPAIDELSSKELVECHLYSQRMHAIHEIDERLAKVNEMNDQLAQELKDLETQVEVEKNEIGKMYDEYLGSHTDQPANVLLVQSLNDMVLELKENY
notes: Nsl1, S. cerevisiae; Dsn1, S. cerevisiae; Mtw1, S. cerevisiae; Nnf1, S. cerevisiae; also called wild-type MIND; pGH46; copies: + + +
As for B1, the binding result in assay [3] is recorded as “binds”.

B2: 2D-MIND complex (FLAG-Nsl1, S240D, S250D-Dsn1, Mtw1, Nnf1) (complex, S. cerevisiae)
chain 1: MSQGQSKKLDVTVEQLRSIYHQFHDILEEKTDLHLPKKEYDDDAVRREVQIQLQEFLLSAMTMASKSLEVVNADTVGKTVKQLIMESQEKYMEPFDLDLNEQVRKMYQEWEDETVKVAQLRQTGPAKINEVYNNSKDEYLAQLDGRIGVLQARMMQQQSADHDDSTDDADDHINWEHIKQDYVASLNELYQTQQDLPKVRYNVEKVKRLMDFLEED
chain 2: MSLEPTQTVSGTPPMLHQRTHKQVYPLRMETIPILESDSKATLQSNEPTQKDEEETEYFENKQSVSNLSPDLKFKRHKNKHIQGFPTLGERLDNLQDIKKAKRVENFNSSAPIADDNHSGDATANATANATANATANVNASAMPAPYMPYYYYYHPMNAPTPAMIPYPGSPMHSIMPNSSLQPFYSQPTAAGGPDMTTPQNISSSQQLLPAPQLFPYGSFHQQQLQQPHYIQRTRERKKDIGSQRGRRLDMLASQANGGSTIISPHKDIPEEDFYTVVGNASFGKNLQIRQLFNWCLMRSLHKLELKAKNQEEEGELEHLTKKSKLESTKAETDYVDPKRLAMVIIKEFVDDLKKDHIAIDWEDEEKYEDEDEEKILDNTENYDDTELRQLFQENDDDDDDDDEVDYSEIQRSRRKFSERRKALPKEPKKLLPNSKNVENTKNLSILTSKVNAIKNEVKEWAVTLDTSRPDLEWQELTSFSSQPLEPLSDTEEPDLAIADVETKLETKVDELRYQSHILNSHSLALNEITNSKVNKLNIETMRKISSETDDDHSQVINPQQLLKGLSLSFSKKLDL
chain 3: MSAPTMRSTSILTEHLGYPPISLVDDIINAVNEIMYKCTAAMEKYLLSKSKIGEEDYGEEIKSGVAKLESLLENSVDKNFDKLELYVLRNVLRIPEEYLDANVFRLENQKDLVIVDENELKKSEEKLREKVNDVELAFKKNEMLLKRVTKVKRLLFTIRGFKQKLNELLKCKDDVQLQKILESLKPIDDTMTLLTDSLRKLYVDSESTSSTEEVEALLQRLKTNGKQNNKDFRTRYIDIRTNNVLRKLGLLGDKEDEKQSAKPDARTQAGDIVSIDIEEPQLDLLDDVL
chain 4: MVNSHGIRYIRLKQVFNRALDQSISKLQSWDKVSSCFPQYVNSKQGAINVANCQRQLTEFWTELCQREFKEIMEERNVEQKLNELDELILEAKERYTDRDQDEVNKGPAIDELSSKELVECHLYSQRMHAIHEIDERLAKVNEMNDQLAQELKDLETQVEVEKNEIGKMYDEYLGSHTDQPANVLLVQSLNDMVLELKENY
notes: Nsl1, S. cerevisiae; Dsn1, S. cerevisiae, with two phosphomimetic substitutions; Mtw1, S. cerevisiae; Nnf1, S. cerevisiae; also called phosphomimetic MIND; pGH62; copies: + + +
Take B2: in assay [4], the binding result was “binds”.

Values taken from paper PMC7367685, “Reconstitution reveals two paths of force transmission through the kinetochore” (eLife, 2020).
